# Results from patent publication US20080220450A1, “Population Based Prediction Methods for Immune Response Determinations and Methods for Verifying Immunological Response Data” (Danisco US, Inc., Genencor Division, priority 2004, published 2008).
# Test system: CD4+ T-cells and dendritic cells
# Experiment: I-MUNE assay: CD4+ T-cell proliferation to 15-mer peptide sets presented by dendritic cells
# Assay type: cell-based, human
# Parameters: Structure Value: scale not given here
# Conditions: for Responses per peptide: positive response SI of 2.95 or greater, community donors; for Response/Peptide: SI>2.95; for background response: average percent responders per peptide, +/− sd where given; for Prominent responses noted at amino acids: peptide regions of the protein
# Method: All peptides were obtained from a commercial source (Mimotopes, San Diego, C-A). For the I-MUNE® assay system described herein, 15-mer peptides offset by 3 amino acids that described the entire sequence of the proteins of interest were synthesized in a multipin format (See, Maeji et al., J. Immunol. Meth., 134:23-33 [1990]). Peptides were resuspended in DMSO at approximately 1 to 2 mg/ml, and stored at −70° C. prior to use. Each peptide was tested at least in duplicate, although for small peptide sets (e.g., Ber e 1), the peptides were routinely tested in triplicate.
# Volunteer donor human blood buffy coat samples were obtained from two commercial sources (Stanford Blood Center, Palo Alto, Calif., and the Sacramento Medical Foundation, Sacramento, Calif.). Buffy coat samples were further purified by density separation. Each sample was HLA typed for HLA-DR and HLA-DQ using a commercial PCR-based kit (Bio-Synthesis).
# Monocytes were purified by adherence to plastic in AIM V medium (Gibco/Life Technologies). Adherent cells were cultured in AIM V media containing 500 units/ml of recombinant human IL-4 (Endogen) and 800 units/ml recombinant human GM-CSF (Endogen) for 5 days. On day 5, recombinant human IL-1α (Endogen) and recombinant human TNF-α (Endogen) were added to 50 units/ml and 0.2 units/ml, respectively. On day 7, the fully matured dendritic cells were treated with 50 μg/ml mitomycin C (Sigma) for 1 hour at 37° C. Treated dendritic cells were dislodged with 50 mM EDTA in PBS, washed in AIM V medium, counted, and resuspended in AIM V media at 2×10^5 cells/ml.
# CD4^+ T-cells were purified by negative selection from frozen aliquots of human peripheral blood mononuclear cells (PBMC) using Cellect CD4 columns (Cedarlane). […] CD4^+ T-cells were resuspended in AIM V media at 2×10^6 cells per ml.
# CD4^+ T-cells and dendritic cells were plated in round-bottomed 96 well format plates at 100 μl of each cell mix per well. Peptide was added to a final concentration of approximately 5 ug/ml in 0.25-0.5% DMSO. Control wells contained 0.5% DMSO without added peptide. Each peptide was tested in duplicate. Cultures were incubated at 37° C., in 5% CO2 for 5 days. On day 5, 0.5 uCi of tritiated thymidine (NEN DuPont) was added to each well. On day 6, the cultures were harvested onto glass fiber mats using a TomTec manual harvester (TomTec), then processed for scintillation counting. Proliferation was assessed by determining the average counts per minute (CPM) value for each set of duplicate wells (TriLux Beta). This method is also described in U.S. Pat. No. 6,218,165 and Stickler et al., J. Immunother. 23: 654-660 (2000), both of which are herein incorporated by reference.
# For each individual buffy coat sample, the average CPM values obtained in the I-MUNE® assay for all of the peptides were analyzed. The average CPM values for each peptide were divided by the average CPM value for the control (DMSO only) wells to determine the “stimulation index” (SI). Donors were tested with each peptide set until an average of at least two responses per peptide were compiled. The data for each protein was graphed showing the percent responders to each peptide within the set. A positive response was collated if the SI value was equal to or greater than 2.95. This value was chosen as it approximates a difference of three standard deviations in a normal population distribution. For each protein assessed, positive responses to individual peptides by individual donors were compiled. To determine the background response for a given protein, the percent responders for each peptide in the set were averaged and a standard deviation was calculated. SI values for each donor were compiled for each peptide set, and the percent of responders reported.
# [1] = Table 1, from compiled responses
# [2] = Table 3, Stanford and Sacramento donors
Molecule,Number of epitope regions (Table 1),Structure Value [1],Responses per peptide (Table 1),Background % (Table 3) [%],Response/Peptide (Table 3),Structure Value [2],background response,Structure Value (compiled responses),Prominent responses noted at amino acids,"Prominent Epitope (Table 4, number of prominent epitopes)","Structure Value (Table 4, parent, dataset of 113 individuals)","SIV (structure index value) (Table 21, parent, I-MUNE assay data)","Background +/− sd (Table 5, background response value)","Responses/peptide found (Table 5, determined experimentally)"
"Amylase: Bacillus licheniformis alpha amylase, industrial enzyme, Swissprot accession number P06278 (protein, UniProt P06278 30-512, looked up) Alpha-amylase: ANLNGTLMQYFEWYMPNDGQHWKRLQNDSAYLAEHGITAVWIPPAYKGTSQADVGYGAYDLYDLGEFHQKGTVRTKYGTKGELQSAIKSLHSRDINVYGDVVINHKGGADATEDVTAVEVDPADRNRVISGEHRIKAWTHFHFPGRGSTYSDFKWHWYHFDGTDWDESRKLNRIYKFQGKAWDWEVSNENGNYDYLMYADIDYDHPDVAAEIKRWGTWYANELQLDGFRLDAVKHIKFSFLRDWVNHVREKTGKEMFTVAEYWQNDLGALENYLNKTNFNHSVFDVPLHYQFHAASTQGGGYDMRKLLNSTVVSKHPLKAVTFVDNHDTQPGQSLESTVQTWFKPLAYAFILTRESGYPQVFYGDMYGTKGDSQREIPALKHKIEPILKARKQYAYGAQHDYFDHHDIVGWTREGDSSVANSGLAALITDGPGGAKRMYVGRQNAGETWHDITGNRSEPVVINSEGWGEFHVNGGSVSIYVQR",3,0.81,2.29,2.79,2.29,0.81,2.80+/−3.69%,0.81,,,,,,
"B. lentus subtilisin: Bacillus lentus subtilisin, industrial protease, Swissprot accession number P29600 (protein, UniProt P29600 1-269, looked up) Subtilisin Savinase: AQSVPWGISRVQAPAAHNRGLTGSGVKVAVLDTGISTHPDLNIRGGASFVPGEPSTQDGNGHGTHVAGTIAALNNSIGVLGVAPSAELYAVKVLGASGSGSVSSIAQGLEWAGNNGMHVANLSLGSPSPSATLEQAVNSATSRGVLVVAASGNSGAGSISYPARYANAMAVGATDQNNNRASFSQYGAGLDIVAPGVNVQSTYPGSTYASLNGTSMATPHVAGAAALVKQKNPSWSNVQIRNHLKNTATSLGSTNLYGSGLVNAEAATR",1,0.64,2.24,3.45,2.24,0.65,3.45+/−2.90%,0.64,160-174,,,,,
"BPN′ Y217L: B. amyloliquifaciens subtilisin BPN′ Y217L, Swissprot accession number P00782 (protein, UniProt P00782 108-382, looked up, variant Y217L) Subtilisin BPN': AQSVPYGVSQIKAPALHSQGYTGSNVKVAVIDSGIDSSHPDLKVAGGASMVPSETNPFQDNNSHGTHVAGTVAALNNSIGVLGVAPSASLYAVKVLGADGSGQYSWIINGIEWAIANNMDVINMSLGGPSGSAALKAAVDKAVASGVVVVAAAGNEGTSGSSSTVGYPGKYPSVIAVGAVDSSNQRASFSSVGPELDVMAPGVSIQSTLPGNKYGALNGTSMASPHVAGAAALILSKHPNWTNTQVRSSLENTTTKLGDSFYYGKGLINVQAAAQ",2,0.53,3.65,3.65,3.61,0.65,3.62%,0.53,,2,0.53,0.53,,
"ALCALASE ®: ALCALASE® enzyme, commercially available from Novo, Swissprot accession number P00780 (protein, UniProt P00780 106-379, looked up) Subtilisin Carlsberg: AQTVPYGIPLIKADKVQAQGFKGANVKVAVLDTGIQASHPDLNVVGGASFVAGEAYNTDGNGHGTHVAGTVAALDNTTGVLGVAPSVSLYAVKVLNSSGSGSYSGIVSGIEWATTNGMDVINMSLGGASGSTAMKQAVDNAYAKGVVVVAAAGNSGSSGNTNTIGYPAKYDSVIAVGAVDSNSNRASFSSVGAELEVMAPGAGVYSTYPTNTYATLNGTSMASPHVAGAAALILSKHPNLSASQVRNRLSSTATYLGSSFYYGKGLINVEAAAQ",1,0.72,2.16,2.35,2.16,0.72,2.35%,0.72,19-33,,,,,
"sTNFR1: soluble tumor necrosis factor receptor 1 (protein, UniProt P19438 30-211, looked up, extracellular domain) extracellular domain: LVPHLGDREKRDSVCPQGKYIHPQNNSICCTKCHKGTYLYNDCPGPGQDTDCRECESGSFTASENHLRHCLSCSKCRKEMGQVEISSCTVDRDTVCGCRKNQYRHYWSENLFQCFNCSLCLNGTVHLSCQEKQNTVCTCHAGFFLRENECVSCSNCKKSLECTKLCLPQIENVKGTEDSGTT",,,,4.2,2.9,0.47,,,,,,,2.23 +/− 1.95,1.54
